Results taken from patent US20110263679.

Tested on: T1, purified recombinant His-tagged C12ORF48 protein
T1 sequence: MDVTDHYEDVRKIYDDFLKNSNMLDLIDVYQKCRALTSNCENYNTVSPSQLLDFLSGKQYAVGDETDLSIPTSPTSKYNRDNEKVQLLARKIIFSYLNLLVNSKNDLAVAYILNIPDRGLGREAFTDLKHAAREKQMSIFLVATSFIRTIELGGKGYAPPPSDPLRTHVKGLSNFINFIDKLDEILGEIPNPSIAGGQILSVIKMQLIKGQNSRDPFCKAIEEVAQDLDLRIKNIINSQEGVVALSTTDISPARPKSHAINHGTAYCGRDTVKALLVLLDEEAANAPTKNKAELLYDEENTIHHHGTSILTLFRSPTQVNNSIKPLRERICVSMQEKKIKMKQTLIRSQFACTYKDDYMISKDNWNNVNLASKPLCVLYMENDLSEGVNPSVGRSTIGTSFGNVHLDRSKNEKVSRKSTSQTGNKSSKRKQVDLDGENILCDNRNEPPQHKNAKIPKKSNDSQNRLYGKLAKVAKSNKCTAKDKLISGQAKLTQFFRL

Substance: recombinant human PARP1 (Alexis)
- PARP1 automodification, incorporation of [32P] NAD+, SDS-PAGE autoradiography: PARP1 automodification was strongly enhanced in the presence of C12ORF48 protein compared with in the absence of C12ORF48 protein
